Positions count from the first letter of the chain named. Values belong to the binder of their own block, whether it stands above or below them.
Tests used:
[1] = target: T1, biotinylated recombinant human IL-12Rβ2 (human, UniProt Q99665 24-622, random biotinylated); assay: ELISA, periplasmic extract on biotinylated hIL-12Rβ2, signal over control wells
T1 construct: Recombinant protein produced in-house, biotinylated; also called hIL-12RB2; human IL-12RB2
T1 sequence: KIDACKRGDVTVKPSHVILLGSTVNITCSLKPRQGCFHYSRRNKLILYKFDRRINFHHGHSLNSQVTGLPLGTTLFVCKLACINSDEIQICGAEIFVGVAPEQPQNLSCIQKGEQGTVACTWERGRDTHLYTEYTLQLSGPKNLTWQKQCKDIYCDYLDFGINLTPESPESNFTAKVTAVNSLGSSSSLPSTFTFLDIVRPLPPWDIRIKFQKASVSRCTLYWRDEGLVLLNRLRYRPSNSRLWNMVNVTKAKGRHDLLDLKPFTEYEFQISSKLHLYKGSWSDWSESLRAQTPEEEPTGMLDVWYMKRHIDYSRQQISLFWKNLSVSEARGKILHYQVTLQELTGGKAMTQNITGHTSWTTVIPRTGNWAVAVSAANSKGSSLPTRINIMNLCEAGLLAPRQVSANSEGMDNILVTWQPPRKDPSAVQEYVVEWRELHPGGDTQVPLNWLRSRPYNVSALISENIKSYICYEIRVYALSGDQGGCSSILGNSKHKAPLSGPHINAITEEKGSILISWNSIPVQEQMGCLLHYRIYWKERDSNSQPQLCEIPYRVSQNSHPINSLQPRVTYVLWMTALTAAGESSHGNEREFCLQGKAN

[2] = target: T2, biotinylated recombinant mouse IL-12Rβ2 (mouse, UniProt P97378 24-637, random biotinylated); assay: ELISA, periplasmic extract on biotinylated mIL-12Rβ2, signal over control wells
T2 construct: Recombinant protein produced in-house, biotinylated; also called mIL-12RB2; mouse IL-12RB2
T2 sequence: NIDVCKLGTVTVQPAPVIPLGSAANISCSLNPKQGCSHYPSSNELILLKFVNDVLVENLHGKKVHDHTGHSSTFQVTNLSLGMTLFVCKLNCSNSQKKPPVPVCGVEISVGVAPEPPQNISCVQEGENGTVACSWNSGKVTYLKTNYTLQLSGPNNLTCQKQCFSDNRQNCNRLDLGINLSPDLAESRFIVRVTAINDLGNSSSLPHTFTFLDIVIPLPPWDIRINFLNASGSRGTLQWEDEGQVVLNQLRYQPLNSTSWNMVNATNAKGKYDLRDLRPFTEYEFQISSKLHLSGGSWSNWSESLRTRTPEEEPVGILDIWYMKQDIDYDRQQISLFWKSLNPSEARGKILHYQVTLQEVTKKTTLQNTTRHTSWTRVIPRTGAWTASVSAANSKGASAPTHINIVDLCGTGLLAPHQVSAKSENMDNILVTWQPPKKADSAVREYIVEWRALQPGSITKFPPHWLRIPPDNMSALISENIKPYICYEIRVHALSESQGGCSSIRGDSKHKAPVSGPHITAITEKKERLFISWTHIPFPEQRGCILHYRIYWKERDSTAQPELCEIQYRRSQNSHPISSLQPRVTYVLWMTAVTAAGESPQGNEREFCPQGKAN

human IL-12Rβ2 = target: T3, human IL-12Rβ2 (human, UniProt Q99665 24-862); assay: flow cytometry, P.E. on transfected HEK293T cells
T3 construct: Expressed on HEK293T cells transiently transfected with a pcDNA3 plasmid (Genscript clone OHu21785); also called hIL-12RB2; IL-12 receptor β2 subunit
T3 sequence: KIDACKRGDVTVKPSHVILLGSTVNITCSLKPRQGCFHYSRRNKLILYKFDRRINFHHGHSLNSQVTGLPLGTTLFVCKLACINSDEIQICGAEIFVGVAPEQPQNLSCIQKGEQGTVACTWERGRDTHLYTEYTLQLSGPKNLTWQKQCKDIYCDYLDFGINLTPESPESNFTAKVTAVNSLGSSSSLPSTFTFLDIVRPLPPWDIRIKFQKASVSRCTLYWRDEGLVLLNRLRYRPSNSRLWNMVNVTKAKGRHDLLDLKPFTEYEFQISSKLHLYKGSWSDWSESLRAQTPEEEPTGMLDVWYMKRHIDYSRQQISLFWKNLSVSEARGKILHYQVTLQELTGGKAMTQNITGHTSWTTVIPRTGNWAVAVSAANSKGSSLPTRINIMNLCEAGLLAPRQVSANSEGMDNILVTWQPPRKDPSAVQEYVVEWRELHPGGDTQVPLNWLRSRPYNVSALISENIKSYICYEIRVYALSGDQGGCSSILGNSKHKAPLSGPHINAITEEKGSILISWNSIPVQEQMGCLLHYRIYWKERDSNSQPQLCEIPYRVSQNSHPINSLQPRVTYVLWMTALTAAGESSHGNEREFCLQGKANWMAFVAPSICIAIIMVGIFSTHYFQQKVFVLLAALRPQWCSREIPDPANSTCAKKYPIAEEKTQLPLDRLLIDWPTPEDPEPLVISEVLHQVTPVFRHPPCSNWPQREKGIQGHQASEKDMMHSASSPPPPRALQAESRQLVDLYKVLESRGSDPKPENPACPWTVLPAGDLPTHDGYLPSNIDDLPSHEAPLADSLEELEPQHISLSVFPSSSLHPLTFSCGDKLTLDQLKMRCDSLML

B1: anti-IL-12Rβ2 VHH clone 20527 (VHH, not shown: small tags and cut ends)
VHH: QVQLQESGGGLVQAGGSLRLSCAASGFTLSTYAMSWVRQAPGKGLEWVSSISSSGASTNYADSVKGRFTISRDNAKNTLYLQMNSLKPEDTAVYYCAKASQNYSPPGQGTQVTVSS
notes: tested as periplasmic extract; also called 3CRMS90
- ELISA binding hIL-12RB2/control [1]: 0.834 ratio
- ELISA binding mIL-12RB2/control [2]: 9.93 ratio

B5: anti-IL-12Rβ2 VHH clone 3CRH83 (VHH, not shown: small tags and cut ends)
VHH: QVQLQESGGGLVQAGGSLKLSCAASGNTFSINAMAWYRQAPGQELELVAAISDVGNTIYADSMKGRFTISRGNADNTVYLQMNSLKPEDTATYYCNAGTFYTSPGDSYYRGYDFWGQGTQVTVSS
notes: periplasmic extract
- % cells bound (human IL-12Rβ2): 28.3%
- dMFI (human IL-12Rβ2): 602

B6: anti-IL-12Rβ2 VHH clone 2CRH76 (VHH, not shown: small tags and cut ends)
VHH: QVQLQESGGGLVQTGGSLRLSCVASGRTFNWSAMGWFRQPPGKEREVVATISGGGTSAYYADSVKGRFTISRDGAKNTLYLQMNSLKPEDTAVYYCAADRVDYRMTLTQNGNHYWGQGTQVTVSS
notes: periplasmic extract
- % cells bound (human IL-12Rβ2): 36.6%
- dMFI (human IL-12Rβ2): 668

B8: anti-IL-12Rβ2 VHH clone 3CRHS31 (VHH, not shown: small tags and cut ends)
VHH: QVQLQESGGGLVQAGGSLRLSCAASGFTFSTYAMSWVRQAPGKGLEWVSSVNSGGLSTDYADSVEGRFTISRDDAKNMLFLQMNSLKPEDTARYYCAKYEDCSDYVCDRAGYWGQGTQVTVSS
notes: periplasmic extract
- % cells bound (human IL-12Rβ2): 42.8%
- dMFI (human IL-12Rβ2): 977

B9: anti-IL-12Rβ2 VHH clone 3CRHS51 (VHH, not shown: small tags and cut ends)
VHH: B8 VHH with A14P, S50A, S85R
notes: periplasmic extract
- % cells bound (human IL-12Rβ2): 46%
- dMFI (human IL-12Rβ2): 1240

B10: anti-IL-12Rβ2 VHH clone 20510 (VHH, not shown: small tags and cut ends)
VHH: QVQLQESGGGLVQAGGSLRLSCAASGRTFSSYGMGWFRQAPGKEREFVAAISRGARITDYADSVKGRFTISRDNAKNTAYLQMNSLNPEDTAVYFCAAAYTYSGSHYVTARSSDYHSWGQGTQVTVSS
notes: tested as periplasmic extract; also called 3CAM31
- ELISA binding hIL-12RB2/control [1]: 1.2 ratio
- ELISA binding mIL-12RB2/control [2]: 16.4 ratio

B13: anti-IL-12Rβ2 VHH clone 3CAH28 (VHH, not shown: small tags and cut ends)
VHH: QVQLQESGGGLVQSGASLRLSCAASERTLSGYAMGWFRQAPGKEREFVAAIRWSGSSTYYAESVEGRFTISRDNAKNTVYLQMNILKPEDTAVYYCAAGSDYADEYDYWGQGTQVTVSS
notes: periplasmic extract; also called 20356
- % cells bound (human IL-12Rβ2): 0.15%
- dMFI (human IL-12Rβ2): 37

B14: anti-IL-12Rβ2 VHH clone 3CAH34 (VHH, not shown: small tags and cut ends)
VHH: QVQLQESGGGSVQPGGSLRLSCGASGFTFSSFGMHWFRQAPGKGQEWAATISSSGGTTYYSDSVKGRFTISRDNAKNTLYLQMNSLKPEDTALYYCARDVTGAVRGQGTQVTVSS
notes: periplasmic extract; also called 20358
- % cells bound (human IL-12Rβ2): 34.6%
- dMFI (human IL-12Rβ2): 620

B17: anti-IL-12Rβ2 VHH clone 3CRH93 (VHH, not shown: small tags and cut ends)
VHH: QVQLQESGGGLVQAGGSLRLSCAASGRTVDSYAMGWFRQTPGKEREFVAASWGGGSTYYADSVKGRFTISRDNVKNTMYLQMDSLKPEDTAVYYCAAGPTYYSGPINDNWEGRYDSWGQGTQVTVSS
notes: periplasmic extract
- % cells bound (human IL-12Rβ2): 31.5%
- dMFI (human IL-12Rβ2): 580

B18: anti-IL-12Rβ2 VHH clone 2CRH62 (VHH, not shown: small tags and cut ends)
VHH: QVQLQESGGGLVQPGGSLRLSCVESGRTFTVYDMGWFRQAPGKEREIVAAISADGATSIYQDSVKGRFTISRDNDAKNTVYLQMNSLKPEDTAVYYCAAGRSLIYNLYRANNTDYWGQGTQVTVSS
notes: periplasmic extract
- % cells bound (human IL-12Rβ2): 41.9%
- dMFI (human IL-12Rβ2): 891

B19: anti-IL-12Rβ2 VHH clone 3CAHS41 (VHH, not shown: small tags and cut ends)
VHH: QVQLQESGGGLVQAGDSLRLSCAASGRTFDTYIVGWFRQAPGKEREFVSALSWSDDTTIRDDSLRGRFTISRDNAKNTVYLLMNSLKPEDTAVYYCAAKAKPPAATWSSYRNREWYDYWGQGTQVTVSS
notes: periplasmic extract
- % cells bound (human IL-12Rβ2): 43.3%
- dMFI (human IL-12Rβ2): 1070

B22: anti-IL-12Rβ2 VHH clone 3CAHS153 (VHH, not shown: small tags and cut ends)
VHH: QVQLQESGGGLVQAGGSLRLSCAASGRTFSSYAMGWFRQVPGKERDFVAAVSWGGLSTYYADSVEGRFTISRDNAKNTVFLQMNSLKPEDTAVYYCAADRAYEGLGYGEYEYWGQGTQVTVSS
notes: periplasmic extract
- % cells bound (human IL-12Rβ2): 36.8%
- dMFI (human IL-12Rβ2): 789

Further lines, results first:

- ELISA binding hIL-12RB2/control [1]: 1.26 ratio
- ELISA binding mIL-12RB2/control [2]: 33.5 ratio
B2: anti-IL-12Rβ2 VHH clone 20451 (VHH, not shown: small tags and cut ends)
VHH: B1 VHH with A14P, L29F, T31A, S54T, A56T, S57N, T58P, K98E, S100Y, Q101R
notes: tested as periplasmic extract; also called 2CRM83

- ELISA binding hIL-12RB2/control [1]: 1.4 ratio
- ELISA binding mIL-12RB2/control [2]: 11.8 ratio
B3: anti-IL-12Rβ2 VHH clone 20447 (VHH, not shown: small tags and cut ends)
VHH: B1 VHH with A14P, L29F, S30R, T31S, A56T, S57D, F68L, A75V
notes: tested as periplasmic extract; also called 2CRM39

- ELISA binding hIL-12RB2/control [1]: 0.989 ratio
- ELISA binding mIL-12RB2/control [2]: 7.52 ratio
B4: anti-IL-12Rβ2 VHH clone 20452 (VHH, not shown: small tags and cut ends)
VHH: B1 VHH with T28A, L29F, T31S, Y32V, S54G, A56H, S57D, D62N, A99S, Q101R
notes: tested as periplasmic extract; also called 2CRM84

- % cells bound (human IL-12Rβ2): 41.2%
- dMFI (human IL-12Rβ2): 918
B7: anti-IL-12Rβ2 VHH clone 3CRH73 (VHH, not shown: small tags and cut ends)
VHH: QVQLQESGGGLVRAGGSLRLSCAASGHTFSNYVMGWFRQAPGKEREFVAAISWGGSNTYYADSVKGRFTISRDNAKNTVYLQMNSLKVEDTAVYYCAADRRFEGWNYYSMDYWGKGTQVTVSS
notes: periplasmic extract

- ELISA binding hIL-12RB2/control [1]: 1.05 ratio
- ELISA binding mIL-12RB2/control [2]: 22 ratio
B11: anti-IL-12Rβ2 VHH clone 20469 (VHH, not shown: small tags and cut ends)
VHH: B10 VHH with A14P, E44K, G54D, Q82E
notes: tested as periplasmic extract; also called 2CAM8

- % cells bound (human IL-12Rβ2): 0.1%
- dMFI (human IL-12Rβ2): 18
B12: anti-IL-12Rβ2 VHH clone 3CAH60 (VHH, not shown: small tags and cut ends)
VHH: QVQLQESGGGLVQPGGSLILSCVASGFAMDYLTMGWSREAPRNEREDISCIDTSGRSTDYLDSVKGRFTISRDNAKNTLYLHMNDLKPEDTAEYYCLASTSYCGAGYEYRGQGTQVTVSS
notes: periplasmic extract; also called 20361

- % cells bound (human IL-12Rβ2): 43%
- dMFI (human IL-12Rβ2): 1020
B15: anti-IL-12Rβ2 VHH clone 3CAHS172 (VHH, not shown: small tags and cut ends)
VHH: B14 VHH with P14A, A48V
notes: periplasmic extract

- % cells bound (human IL-12Rβ2): 44.6%
- dMFI (human IL-12Rβ2): 1110
B16: anti-IL-12Rβ2 VHH clone 3CRH28 (VHH, not shown: small tags and cut ends)
VHH: QVQLQESGGGLVQPGGSLTLSCAASGFTFSSNAMSWVRQAPGKGLEWVSSISSGGGTTYYTDSVKGRFTTARDNAKNTLYLRMNSLKPEDTAVYYCSKSSTGSGSRGQGTQVTVSS
notes: periplasmic extract

- % cells bound (human IL-12Rβ2): 42.6%
- dMFI (human IL-12Rβ2): 1010
B20: anti-IL-12Rβ2 VHH clone 3CAHS180 (VHH, not shown: small tags and cut ends)
VHH: B19 VHH with I70L
notes: periplasmic extract

- % cells bound (human IL-12Rβ2): 40.1%
- dMFI (human IL-12Rβ2): 844
B21: anti-IL-12Rβ2 VHH clone 2CRH82 (VHH, not shown: small tags and cut ends)
VHH: QVQLQESGGGLVQAGGSLRLSCAASARTESMYAMAWFRQAPGKEREIVAGIIQSGGTTYISDYMKGRFSIDRGNAENTVYLQMDSLKPEDTAVYSCAAKVSSGTPSDIQISQSRWYDHWGQGTQVTVSS
notes: periplasmic extract
